# Assay results: PMC6785124, “Allosteric regulation of a prokaryotic small Ras-like GTPase contributes to cell polarity oscillations in bacterial motility” (PLoS Biology, 2019)
# Residue numbers refer to the chain shown, from its start.
# T1: Myxococcus xanthus Mutual gliding motility A, MxMglA(His6) (Myxococcus xanthus, UniProt Q1DB04 1-195)
# T1 construct: MglA, small Ras-like GTPase of Myxococcus xanthus; gene mglA amplified from genomic DNA (DSMZ 16526) and cloned into pHis17 between NdeI and BamHI; In the assays it carried m-GDP, m-GNP (mant-GppNHp) or GTPγS; source: E. coli BL21-DE3, purified (HisTrap, Superdex75); not shown: His6, C-terminal, kept
# T1 sequence: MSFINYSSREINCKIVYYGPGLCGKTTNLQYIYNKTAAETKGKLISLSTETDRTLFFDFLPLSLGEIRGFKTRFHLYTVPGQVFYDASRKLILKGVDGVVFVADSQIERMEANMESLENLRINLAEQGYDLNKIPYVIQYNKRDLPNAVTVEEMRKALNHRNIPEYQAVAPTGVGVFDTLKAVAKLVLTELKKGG
# T2: MxMglA^Q82L, active site mutant of MxMglA (Myxococcus xanthus, UniProt Q1DB04 1-195, Q82L)
# T2 construct: MglA of Myxococcus xanthus with Q82L (active site); Mutant of m1; source: E. coli BL21-DE3, purified (protocol similar to MxMglA(His6))
# T2 sequence: T1 sequence with Q82L
# T3: MxMglA^K, MxMglA K181A and K185A double mutant (Myxococcus xanthus, UniProt Q1DB04 1-195, K181A | K185A)
# T3 construct: Mutant of m1; source: E. coli BL21-DE3, purified (protocol similar to MxMglA(His6))
# T3 sequence: T1 sequence with K181A, K185A
# T4: MxMglA^L, MxMglA L64A and I67A double mutant (Myxococcus xanthus, UniProt Q1DB04 1-195, L64A | I67A)
# T4 construct: MglA of Myxococcus xanthus with L64A and I67A (β2-β3 loop, interswitch region); Mutant of m1; source: E. coli BL21-DE3, purified (protocol similar to MxMglA(His6))
# T4 sequence: T1 sequence with L64A, I67A
# T5: Myxococcus xanthus Mutual gliding motility B, full-length MxMglB(His6) (Myxococcus xanthus), Q1DB03
# T5 chain: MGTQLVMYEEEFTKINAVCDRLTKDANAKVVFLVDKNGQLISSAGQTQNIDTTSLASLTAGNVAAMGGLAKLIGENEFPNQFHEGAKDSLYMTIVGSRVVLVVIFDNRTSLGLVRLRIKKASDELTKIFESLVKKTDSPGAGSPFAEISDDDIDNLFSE
# B1: Myxococcus xanthus Mutual gliding motility B, full-length MxMglB(His6) (natural protein, UniProt Q1DB03 1-159, looked up)
# chain: T5 chain
# notes: Rbl/LC7 core residues 10-131, Ct-helix residues 147-157; also called MglB1 and MglB2 (the two protomers in the crystal); source: E. coli BL21-AI, purified (HisTrap, Superdex75); not shown: His6, C-terminal, kept
# B2: selenomethionine-labeled MxMglB^L156M (natural protein, Myxococcus xanthus)
# chain: T5 chain with L156M
# modifications: selenomethionine-labeled
# notes: MglB of Myxococcus xanthus with Leu156 mutated to methionine; construct without histidine tag; Made to confirm the registry of the Ct-helix; Probably a point mutant of full-length MglB
# B3: selenomethionine-labeled MxMglB^I148M (natural protein, Myxococcus xanthus)
# chain: T5 chain with I148M
# modifications: selenomethionine-labeled
# notes: MglB of Myxococcus xanthus with Ile148 mutated to methionine; construct without histidine tag; Made to confirm the registry of the Ct-helix; Probably a point mutant of full-length MglB
# Experiments:
# [1] = target: Myxococcus xanthus Mutual gliding motility A, MxMglA(His6) (Myxococcus xanthus) (UniProt Q1DB04); assay: fluorescence polarisation; fluorescence anisotropy of 400 nM mant-GppNHp (m-GNP) mixed with 2 μM MxMglA or its mutant, titrated with MxMglB or MxMglB^ΔCt (concentration as MglB dimer); one site-specific binding fit
# [2] = target: T1, Myxococcus xanthus Mutual gliding …; assay: fluorescence polarisation; fluorescence anisotropy of 400 nM mant-GDP (m-GDP) mixed with 2 μM MxMglA or its mutant, titrated with MxMglB or MxMglB^ΔCt (concentration as MglB dimer); one site-specific binding fit; details: both partners purified
# [3] = target: T2, MxMglA^Q82L, active site mutant of …; assay: fluorescence polarisation; fluorescence anisotropy of 400 nM mant-GppNHp (m-GNP) mixed with 2 μM MxMglA or its mutant, titrated with MxMglB or MxMglB^ΔCt (concentration as MglB dimer); one site-specific binding fit; details: both partners purified
# [4] = target: T3, MxMglA^K, MxMglA K181A and K185A double …; assay: as above; details: both partners purified
# [5] = target: T4, MxMglA^L, MxMglA L64A and I67A double …; assay: as above; details: both partners purified
# [6] = target: T1, Myxococcus xanthus Mutual gliding …; assay: as above; details: both partners purified
# [7] = target: T5, Myxococcus xanthus Mutual gliding …; assay: crystal structure; MxMglA and MxMglB mixed 1:1 (MglB as monomer), 4 mg/ml each, in A50 buffer with 5 mM MgCl2 and 2 mM GTPγS; PEG 4000 or PEG 3350 with 200 mM ammonium sulphate; details: remark: other sources report otherwise
# [8] = target: T1, Myxococcus xanthus Mutual gliding …; assay: as above; details: both partners purified
molecule,measurement,setting,value
"MxMglB^ΔCt(His6), truncated MxMglB lacking the C-terminal helix (domain or fragment)",Kd,[1],290 nM
B1,Kd,[2],120 ± 30 nM
same,binding result,[3],binds
same,binding result,[4],binds
same,binding result,[5],binds
same,Kd,[6],100 ± 40 nM
same,stoichiometry N,[7],2
B2,binding result,[8],binds
B3,binding result,[8],binds
